Data published in paper PMC9641999, “Cryo-EM samples of gas-phase purified protein assemblies using native electrospray ion-beam deposition” (Faraday discussions, 2022).

B1: apoferritin (natural protein, UniProt P02791 1-175, looked up)
chain: MSSQIRQNYSTEVEAAVNRLVNLYLRASYTYLSLGFYFDRDDVALEGVCHFFRELAEEKREGAERLLKMQNQRGGRALFQDLQKPSQDEWGTTLDAMKAAIVLEKSLNQALLDLHALGSAQADPHLCDFLESHFLDEEVKLIKKMGDHLTNIQRLVGSQAGLGEYLFERLTLKHD
notes: ferritin, Sigma Aldrich F4503-25MG; The sample held both apo- and holoferritin, and the 24-mer of apoferritin was selected by mass; PDB 7A6A, used for comparison of shapes, may be a recombinant ferritin of another species or chain; also called apo/holo-ferritin; source: bought: Sigma Aldrich (F4503-25MG), saline stock solution, used without further purification; desalted into 200 mM ammonium …
B2: alcohol dehydrogenase (enzyme)
chain: MSIPETQKGVIFYESHGKLEYKDIPVPKPKANELLINVKYSGVCHTDLHAWHGDWPLPVKLPLVGGHEGAGVVVGMGENVKGWKIGDYAGIKWLNGSCMACEYCELGNESNCPHADLSGYTHDGSFQQYATADAVQAAHIPQGTDLAQVAPILCAGITVYKALKSANLMAGHWVAISGAAGGLGSLAVQYAKAMGYRVLGIDGGEGKEELFRSIGGEVFIDFTKEKDIVGAVLKATDGGAHGVINVSVSEAAIEASTRYVRANGTTVLVGMPAGAKCCSDVFNQVVKSISIVGSYVGNRADTREALDFFARGLVKSPIKVVGLSTLPEIYEKMEKGQIVGRYVVDTSK
notes: alcohol dehydrogenase (ADH), Sigma Aldrich A7011-15KU; native tetramer selected by mass; also called ADH; source: bought: Sigma Aldrich (A7011-15KU), used without further purification; desalted into 200 mM ammonium acetate

Biological target: the molecule itself
Assay: native MS; non-activating native electrospray on a Q Exactive UHMR; 200 mM ammonium acetate pH 6.9; 5 μM ADH, 10 μM β-gal, 8 μM ferritin, 5 μM GroEL (concentrations of the most abundant oligomers)

Protein | stoichiometry N
B1 | 24
B2 | 4
